From article PMC3963500

Biological target: PDGF-BB (UniProt P01127 82-190)
Assay: microcantilever deflection

PDGF-BB, sequence (P01127 82-190): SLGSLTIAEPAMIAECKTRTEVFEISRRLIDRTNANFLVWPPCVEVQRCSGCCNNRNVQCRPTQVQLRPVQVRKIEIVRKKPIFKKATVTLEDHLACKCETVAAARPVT

B1: PDGF aptamer (thiolated) (structured_DNA)
DNA: CACAGGCTACGGCACGTAGAGCATCACCATGATCCTGTG
modifications: thiol (HS-aptamer; printed as 3'T after the sequence), immobilized on Au-coated cantilever
- binding result: binds
